From publication PMC5612032

Molecular target: Amyloid-β peptide Aβ(1-42)
Test: NMR titration; 5 μM soluble pEAβ(3-42), 5% Aβ(1-42) fibrils added directly; decrease of the NMR signal of soluble pEAβ(3-42) within ca. 10 min; 10 mM sodium phosphate pH 7.4, 37 °C

Question: With “Pyroglutamate-modified amyloid-β pEAβ(3-42) (peptide)” as the substance, how does the decrease in NMR signal intensity of soluble pEAβ(3-42) read?
Answer: 50%

Question: And the stoichiometry N (pEAβ(3-42) : Aβ(1-42) in fibrils)?
Answer: 10
